B1: KRT34 (parent)
chain: PTVDLNQVLNETRSQYEALVETNR
B2: MYBL2 (parent)
chain: FSPSQFLNFWNKQDTLELESPSLT
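Also: lentivirally expressed fusions sorted by FACS into six bins by GFP to DsRed ratio, PSI derived from sequencing read proportions per bin multiplied by bin number.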

Variants of: B1
Experiment: protein stability index of a GFP-peptide fusion (GPS, HEK-293T) (PSI 1-6); higher = more stable
Settings: c terminus: a fixed tail appended
In the case of PTVDLNQVLNETRSQYEAQVETNR [L19Q], the protein stability index is reported as 4.63.
With PTVDLNQVLNETRSQYEATVETNR [L19T] the protein stability index was 4.5.
PTVDLNQVLNETRSQYEARVETNR [L19R] gave a protein stability index of 4.81.
Variant PTVDLNQVLNETRSQYEAMVETNR [L19M] has a protein stability index of 3.84.
PTVDLNQVLNETRSQYEAFVETNR [L19F] showed a protein stability index of 3.51.
With PTVDLNQVLNETRSQYEAYVETNR [L19Y] the protein stability index was 4.39.
In the case of PTVDLNQVLNETRSQYELLVETNR [A18L], the protein stability index is reported as 3.66.
PTVDLNQVLNETRSQYECLVETNR [A18C] gave a protein stability index of 4.01.
For PTVDLNQVLNETRSQYEWLVETNR [A18W], the protein stability index was 3.5.
In the case of PTVDLNQVLNETRSQYEKLVETNR [A18K], the protein stability index is reported as 3.16.
PTVDLNQVLNETRSQYEELVETNR [A18E] showed a protein stability index of 3.69.
For PTVDLNQVLNETRSQYENLVETNR [A18N], the protein stability index was 3.3.
Variant PTVDLNQVLNETRSQYEILVETNR [A18I] has a protein stability index of 3.7.
In the case of PTVDLNQVLNETRSQYEDLVETNR [A18D], the protein stability index is reported as 3.92.
In the case of PTVDLNQVLNETRSQYERLVETNR [A18R], the protein stability index is reported as 2.31.
In the case of PTVDLNQVLNETRSQYEVLVETNR [A18V], the protein stability index is reported as 4.01.
For PTVDLNQVLNETRSQYESLVETNR [A18S], the protein stability index was 3.32.
PTVDLNQVLNETRSQYEPLVETNR [A18P] gave a protein stability index of 4.6.
For PTVDLNQVLNETRSQYEYLVETNR [A18Y], the protein stability index was 3.6.
Variant PTVDLNQVLNETRSQYEHLVETNR [A18H] has a protein stability index of 4.4.
PTVDLNQVLNETRSQYEGLVETNR [A18G] showed a protein stability index of 4.03.
For PTVDLNQVLNETRSQYEFLVETNR [A18F], the protein stability index was 3.59.
In the case of PTVDLNQVLNETRSQYEQLVETNR [A18Q], the protein stability index is reported as 3.78.
With PTVDLNQVLNETRSQYETLVETNR [A18T] the protein stability index was 3.81.
Work on PTVDLNQVLNETRSQYEMLVETNR [A18M] yielded a protein stability index of 3.74.
For PTVDLNQVLNETRSQYEALVCTNR [E21C], the protein stability index was 3.55.
Variant PTVDLNQVLNETRSQYEALVWTNR [E21W] has a protein stability index of 2.62.
With PTVDLNQVLNETRSQYEALVVTNR [E21V] the protein stability index was 3.49.
PTVDLNQVLNETRSQYEALVHTNR [E21H] showed a protein stability index of 3.76.
In the case of PTVDLNQVLNETRSQYEALVFTNR [E21F], the protein stability index is reported as 2.74.
PTVDLNQVLNETRSQYEALVTTNR [E21T] showed a protein stability index of 3.74.
In the case of PTVDLNQVLNETRSQYEALVMTNR [E21M], the protein stability index is reported as 3.92.
PTVDLNQVLNETRSQYEALVATNR [E21A] gave a protein stability index of 3.84.
With PTVDLNQVLNETRSQYEALVPTNR [E21P] the protein stability index was 4.19.
Variant PTVDLNQVLNETRSQYEALVGTNR [E21G] has a protein stability index of 4.06.
For PTVDLNQVLNETRSQYEALVITNR [E21I], the protein stability index was 3.23.
Variant PTVDLNQVLNETRSQYEALVRTNR [E21R] has a protein stability index of 3.62.
Variant PTVDLNQVLNETRSQYEALVSTNR [E21S] has a protein stability index of 4.02.
Variant PTVDLNQVLNETRSQYEALVDTNR [E21D] has a protein stability index of 3.64.
PTVDLNQVLNETRSQYEALVLTNR [E21L] showed a protein stability index of 3.56.
PTVDLNQVLNETRSQYEALVNTNR [E21N] showed a protein stability index of 3.83.
Variant PTVDLNQVLNETRSQYEALVYTNR [E21Y] has a protein stability index of 3.62.
With PTVDLNQVLNETRSQYEALVKTNR [E21K] the protein stability index was 4.3.
Variant PTVDLNQVLNETRSQYEALVQTNR [E21Q] has a protein stability index of 4.3.
For PTVDLNQVLNETRSQYEALVETER [N23E], the protein stability index was 5.16.
In the case of PTVDLNQVLNETRSQYEALVETYR [N23Y], the protein stability index is reported as 3.52.
Variant PTVDLNQVLNETRSQYEALVETRR [N23R] has a protein stability index of 4.11.
With PTVDLNQVLNETRSQYEALVETPR [N23P] the protein stability index was 4.04.
PTVDLNQVLNETRSQYEALVETGR [N23G] showed a protein stability index of 4.04.
Work on PTVDLNQVLNETRSQYEALVETSR [N23S] yielded a protein stability index of 4.39.
PTVDLNQVLNETRSQYEALVETTR [N23T] showed a protein stability index of 3.99.
PTVDLNQVLNETRSQYEALVETDR [N23D] gave a protein stability index of 5.04.
Variant PTVDLNQVLNETRSQYEALVETFR [N23F] has a protein stability index of 3.71.
For PTVDLNQVLNETRSQYEALVETHR [N23H], the protein stability index was 4.05.
In the case of PTVDLNQVLNETRSQYEALVETCR [N23C], the protein stability index is reported as 3.47.
PTVDLNQVLNETRSQYEALVETKR [N23K] gave a protein stability index of 3.95.
Work on PTVDLNQVLNETRSQYEALVETMR [N23M] yielded a protein stability index of 3.12.
Work on PTVDLNQVLNETRSQYEALVETAR [N23A] yielded a protein stability index of 4.03.
For PTVDLNQVLNETRSQYEALVETWR [N23W], the protein stability index was 2.53.
PTVDLNQVLNETRSQYEALVETQR [N23Q] gave a protein stability index of 4.52.
Work on PTVDLNQVLNETRSQYEALVETVR [N23V] yielded a protein stability index of 3.
Work on PTVDLNQVLNETRSQYEALVETIR [N23I] yielded a protein stability index of 2.79.
PTVDLNQVLNETRSQYEALVETLR [N23L] showed a protein stability index of 2.41.
Work on PTVDLNQVLNETRSQYEALFETNR [V20F] yielded a protein stability index of 3.64.
PTVDLNQVLNETRSQYEALQETNR [V20Q] gave a protein stability index of 4.5.
Variant PTVDLNQVLNETRSQYEALYETNR [V20Y] has a protein stability index of 4.09.
Work on PTVDLNQVLNETRSQYEALLETNR [V20L] yielded a protein stability index of 4.04.
For PTVDLNQVLNETRSQYEALNETNR [V20N], the protein stability index was 4.42.
In the case of PTVDLNQVLNETRSQYEALRETNR [V20R], the protein stability index is reported as 4.9.
In the case of PTVDLNQVLNETRSQYEALWETNR [V20W], the protein stability index is reported as 3.83.
PTVDLNQVLNETRSQYEALTETNR [V20T] gave a protein stability index of 4.25.
Variant PTVDLNQVLNETRSQYEALIETNR [V20I] has a protein stability index of 4.
Work on PTVDLNQVLNETRSQYEALAETNR [V20A] yielded a protein stability index of 2.68.
In the case of PTVDLNQVLNETRSQYEALGETNR [V20G], the protein stability index is reported as 4.44.
In the case of PTVDLNQVLNETRSQYEALPETNR [V20P], the protein stability index is reported as 4.91.
PTVDLNQVLNETRSQYEALMETNR [V20M] showed a protein stability index of 3.58.
PTVDLNQVLNETRSQYEALSETNR [V20S] showed a protein stability index of 3.98.
Variant PTVDLNQVLNETRSQYEALKETNR [V20K] has a protein stability index of 4.86.
For PTVDLNQVLNETRSQYEALDETNR [V20D], the protein stability index was 4.71.
PTVDLNQVLNETRSQYEALEETNR [V20E] gave a protein stability index of 3.52.
Work on PTVDLNQVLNETRSQYEALCETNR [V20C] yielded a protein stability index of 3.68.
In the case of PTVDLNQVLNETRSQYEALHETNR [V20H], the protein stability index is reported as 4.77.

Variants of: B2
Experiment: as above
Settings: c terminus: a fixed tail appended
Variant ASPSQFLNFWNKQDTLELESPSLT [F1A] has a protein stability index of 3.77.
For ESPSQFLNFWNKQDTLELESPSLT [F1E], the protein stability index was 4.58.
NSPSQFLNFWNKQDTLELESPSLT [F1N] showed a protein stability index of 3.3.
With DSPSQFLNFWNKQDTLELESPSLT [F1D] the protein stability index was 4.27.
For KSPSQFLNFWNKQDTLELESPSLT [F1K], the protein stability index was 3.75.
In the case of PSPSQFLNFWNKQDTLELESPSLT [F1P], the protein stability index is reported as 4.2.
For ISPSQFLNFWNKQDTLELESPSLT [F1I], the protein stability index was 3.
In the case of LSPSQFLNFWNKQDTLELESPSLT [F1L], the protein stability index is reported as 3.51.
Variant CSPSQFLNFWNKQDTLELESPSLT [F1C] has a protein stability index of 2.62.
GSPSQFLNFWNKQDTLELESPSLT [F1G] showed a protein stability index of 2.83.
With MSPSQFLNFWNKQDTLELESPSLT [F1M] the protein stability index was 3.3.
For HSPSQFLNFWNKQDTLELESPSLT [F1H], the protein stability index was 2.13.

— the supplement of paper PMC10567573
